Measured values from patent publication US20040071702A1 (Genmab, published 2004).

Target: T1, IL-15Rα constitutively expressed on Raji cells (UniProt Q13261 31-267, limits assumed)
T1 construct: whole, on cells; also called IL-15R-expressing Raji cells
Experiment: flow cytometry, IL-15Rα-expressing Raji cells without IL-15, biotinylated 146B7, streptavidin-PE; stimulation index
Protocol: Raji cells are pre-incubated (20 minutes at 4° C.) with 10% human pooled AB serum (CLB, Amsterdam, Netherlands)in FACS buffer (PBS, 0.05%BSA, 0.02% NaNO₃). Raji cells (1-2*10⁵ cells/ml) were put in the wells, and 50 μl of unlabeled IL-15 was added in several concentrations (diluted in FACS buffer with 10% human AB serum). […] After washing twice in FACS buffer, 50 μl of streptavidin-phycoerythrin was added to each well (30 minutes at 4° C.). After washing twice in FACS buffer, cells were taken up in 200 μl of FACS buffer, and fluorescence intensity of at least 5000 cells per sample was determined after analysis by flow cytometry (FACS Calibur, Becton Dickinson) using CellQuest software.

T1 sequence (Q13261 31-267 limits assumed): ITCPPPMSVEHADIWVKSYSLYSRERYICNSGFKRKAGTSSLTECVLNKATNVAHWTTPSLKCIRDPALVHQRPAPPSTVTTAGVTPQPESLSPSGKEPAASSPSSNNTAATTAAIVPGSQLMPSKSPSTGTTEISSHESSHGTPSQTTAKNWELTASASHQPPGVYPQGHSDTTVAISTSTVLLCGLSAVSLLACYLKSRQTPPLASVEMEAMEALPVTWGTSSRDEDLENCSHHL

B1: human anti-IL-15 antibody 146B7 (antibody, human IgG1, V domains shown)
VH: EVQLVQSGAEVKKPGESLKISCKVSGYFFTTYWIGWVRQMPGKGLEYMGIIYPGDSDTRYSPSFQGQVTISADKSISTAYLQWSSLKASDTAMYYCARGGNWNCFDYWGQGTLVTVSS
VL: EIVLTQSPGTLSLSPGERATLSCRASQSVSSSYLAWYQQKPGQAPRLLIYGASRRATGIPDRFSGSGSGTDFTLTISRLEPEDFAVYYCQRYGSSHTFGQGTKLEISR
notes: also called MDX015
binding result: no binding (tested: 10000 (unit not printed on the sheet))
